Results as given in PMC3035177 (Chemistry & biology, 2005).

Target: T1, DnaG primase (purified) (B. stearothermophilus, UniProt Q9X4D0 1-597)
T1 sequence (looked up): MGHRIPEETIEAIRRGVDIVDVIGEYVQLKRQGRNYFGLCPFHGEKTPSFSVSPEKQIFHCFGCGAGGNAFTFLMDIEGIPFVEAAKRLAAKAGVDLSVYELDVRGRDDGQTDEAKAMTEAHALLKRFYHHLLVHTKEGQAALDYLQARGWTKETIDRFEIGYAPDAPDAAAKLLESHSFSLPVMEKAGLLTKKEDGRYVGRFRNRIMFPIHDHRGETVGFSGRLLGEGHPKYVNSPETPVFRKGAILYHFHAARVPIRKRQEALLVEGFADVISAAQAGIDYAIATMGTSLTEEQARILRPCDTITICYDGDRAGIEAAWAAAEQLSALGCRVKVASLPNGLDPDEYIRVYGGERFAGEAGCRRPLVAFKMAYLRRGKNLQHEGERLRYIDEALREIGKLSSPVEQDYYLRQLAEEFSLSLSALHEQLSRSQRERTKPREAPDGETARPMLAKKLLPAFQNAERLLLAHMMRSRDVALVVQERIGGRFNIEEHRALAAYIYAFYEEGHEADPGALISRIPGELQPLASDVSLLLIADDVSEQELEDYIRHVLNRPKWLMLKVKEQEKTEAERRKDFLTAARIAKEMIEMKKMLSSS
Assay: SEC

B1: DnaB helicase (purified) (enzyme, B. stearothermophilus, UniProt Q9X4C9 1-454, looked up)
chain: MSELFSERIPPQSIEAEQAVLGAVFLDPAALVPASEILIPEDFYRAAHQKIFHAMLRVADRGEPVDLVTVTAELAASEQLEEIGGVSYLSELADAVPTAANVEYYARIVEEKSVLRRLIRTATSIAQDGYTREDEIDVLLDEADRKIMEVSQRKHSGAFKNIKDILVQTYDNIEMLHNRDGEITGIPTGFTELDRMTSGFQRSDLIIVAARPSVGKTAFALNIAQNVATKTNENVAIFSLEMSAQQLVMRMLCAEGNINAQNLRTGKLTPEDWGKLTMAMGSLSNAGIYIDDTPSIRVSDIRAKCRRLKQESGLGMIVIDYLQLIQGSGRSKENRQQEVSEISRSLKALARELEVPVIALSQLSRSVEQRQDKRPMMSDIRESGSIEQDADIVAFLYRDDYYNKDSENKNIIEIIIAKQRNGPVGTVQLAFIKEYNKFVNLERRFDEAQIPPGA
B1: binds.
